From patent US20230126400A1

Legend:
human MS4A4A (human) [1] = biological target: human MS4A4A (human) (UniProt Q96JQ5); experiment: functional affinity, FACS titration on stably transfected 300.19 cells
[2] = biological target: cynomolgus (cyno) MS4A4A (cynomolgus); experiment: flow cytometry (anti-mouse IgG Fc-APC) on 300.19 cells transfected with cyno MS4A4A (Plate E); untransfected 300.19 cells (Plate C): mean 110
human MS4A4A (human) [3] = biological target: human MS4A4A (human) (UniProt Q96JQ5); experiment: flow cytometry (anti-mouse IgG Fc-APC) on 300.19 cells transfected with human MS4A4A (Plate D); untransfected 300.19 cells (Plate C): mean 110
human MS4A4A (human) [4] = biological target: human MS4A4A (human) (UniProt Q96JQ5); experiment: flow cytometry (anti-mouse IgG Fc-APC) on U937 cells transfected with human MS4A4A (Plate B); untransfected U937 cells (Plate A): mean 259
human MS4A4A (human) [5] = biological target: human MS4A4A (human) (UniProt Q96JQ5); experiment: flow cytometry (anti-mouse IgG Fc-APC) on HEK293 cells transiently transfected with human MS4A4A (h4A_293); 293 parental cells: mean 131
[6] = biological target: cynomolgus (cyno) MS4A4A (cynomolgus); experiment: flow cytometry (anti-mouse IgG Fc-APC) on HEK293 cells transiently transfected with cyno MS4A4A (cy4A_293); 293 parental cells: mean 131
[7] = biological target: human MS4A4A-GFP 4A.Ala.35 (ECL2 deletion of GNS) (human) (UniProt Q96JQ5); experiment: FACS, HEK293T
human MS4A4A (human) [8] = biological target: human MS4A4A (human) (UniProt Q96JQ5); experiment: flow cytometry (anti-mouse IgG Fc-APC) on U937 cells transfected with human MS4A4A (Plate B); untransfected U937 cells (Plate A): mean 387
human MS4A4A (human) [9] = biological target: human MS4A4A (human) (UniProt Q96JQ5); experiment: flow cytometry (anti-mouse IgG Fc-APC) on U937 cells transfected with human MS4A4A (Plate B); untransfected U937 cells (Plate A): mean 240; no primary antibody on Plate B: 246
[10] = biological target: cynomolgus (cyno) MS4A4A (cynomolgus); experiment: flow cytometry (anti-mouse IgG Fc-APC) on 300.19 cells transfected with cyno MS4A4A (Plate E); untransfected 300.19 cells (Plate C): mean 111; no primary antibody on Plate E: 122
human MS4A4A (human) [11] = biological target: human MS4A4A (human) (UniProt Q96JQ5); experiment: flow cytometry (anti-mouse IgG Fc-APC) on 300.19 cells transfected with human MS4A4A (Plate D); untransfected 300.19 cells (Plate C): mean 111; no primary antibody on Plate D: 177
[12] = biological target: cynomolgus (cyno) MS4A4A (cynomolgus); experiment: flow cytometry (anti-mouse IgG Fc-APC) on 300.19 cells transfected with cyno MS4A4A (Plate E); untransfected 300.19 cells (Plate C): mean 106; no primary antibody on Plate E: 122
human MS4A4A (human) [13] = biological target: human MS4A4A (human) (UniProt Q96JQ5); experiment: flow cytometry (anti-mouse IgG Fc-APC) on U937 cells transfected with human MS4A4A (Plate B); untransfected U937 cells (Plate A): mean 229; no primary antibody on Plate B: 246
human MS4A4A (human) [14] = biological target: human MS4A4A (human) (UniProt Q96JQ5); experiment: flow cytometry (anti-mouse IgG Fc-APC) on 300.19 cells transfected with human MS4A4A (Plate D); untransfected 300.19 cells (Plate C): mean 106; no primary antibody on Plate D: 177
human MS4A4A (human) [15] = biological target: human MS4A4A (human) (UniProt Q96JQ5); experiment: flow cytometry (anti-mouse IgG Fc-APC) on U937 cells transfected with human MS4A4A (Plate B); untransfected U937 cells (Plate A): mean 247; no primary antibody on Plate B: 246

anti-MS4A4A antibody 3F2 (Millipore)
Kd (human MS4A4A (human) [1]): 9.5 nM
Mean : APC-A [2]: 128
Mean : APC-A (human MS4A4A (human) [3]): 21100
Mean : APC-A (human MS4A4A (human) [4]): 14300

anti-MS4A4A antibody 4H2 (Kerafast)
Kd (human MS4A4A (human) [1]): 10 nM

anti-MS4A4A antibody 5C12 (BioLegend)
Kd (human MS4A4A (human) [1]): 27 nM
Mean : APC-A (human MS4A4A (human) [5]): 7160
Mean : APC-A [2]: 129
Mean : APC-A (human MS4A4A (human) [3]): 19500
Mean : APC-A [6]: 158
% binding compared to wildtype MS4A4A [7]: 1%
Mean : APC-A (human MS4A4A (human) [8]): 15000

msIgG1 Isotype Ctrl (antibody)
Mean : APC-A (human MS4A4A (human) [9]): 248
Mean : APC-A [10]: 116
Mean : APC-A (human MS4A4A (human) [11]): 181

msIgG2a Isotype Ctrl (antibody)
Mean : APC-A [12]: 109
Mean : APC-A (human MS4A4A (human) [13]): 243
Mean : APC-A (human MS4A4A (human) [14]): 155

msIgG2b Isotype Ctrl (antibody)
Mean : APC-A [10]: 107
Mean : APC-A (human MS4A4A (human) [15]): 234
Mean : APC-A (human MS4A4A (human) [11]): 155
